Assay results reported in article PMC1874613.
Changes are numbered by the printed parent chain. Read-outs that look alike come from different tables or passages of the source.

What was measured:
C-SBP2 [1] = biological target: T1, C-SBP2 (human, UniProt Q96T21 515-854); experiment: EMSA
T1 sequence: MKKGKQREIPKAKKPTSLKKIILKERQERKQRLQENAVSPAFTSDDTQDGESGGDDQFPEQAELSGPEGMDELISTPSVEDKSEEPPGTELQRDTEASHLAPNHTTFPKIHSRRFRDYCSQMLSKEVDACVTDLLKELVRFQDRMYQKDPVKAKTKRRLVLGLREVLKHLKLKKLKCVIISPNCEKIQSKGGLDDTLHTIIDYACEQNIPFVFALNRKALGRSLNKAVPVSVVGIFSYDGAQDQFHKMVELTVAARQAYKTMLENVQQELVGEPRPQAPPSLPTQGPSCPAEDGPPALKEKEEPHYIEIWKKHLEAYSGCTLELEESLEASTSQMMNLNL

Snu13p [2] = biological target: T2, Snu13p (yeast, UniProt P39990 1-126); experiment: EMSA
T2 sequence: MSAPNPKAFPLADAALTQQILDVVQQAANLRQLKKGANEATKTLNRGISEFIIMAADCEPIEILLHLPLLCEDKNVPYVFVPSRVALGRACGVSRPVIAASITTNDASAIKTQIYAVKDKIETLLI

C-SBP2 [3] = biological target: T1, C-SBP2; experiment: EMSA; remark: listed apart in the source
Snu13p [4] = biological target: T2, Snu13p; experiment: EMSA; remark: listed apart in the source
C-SBP2 [5] = biological target: T1, C-SBP2; experiment: EMSA; remark: listed apart in the source
Snu13p [6] = biological target: T2, Snu13p; experiment: EMSA; remark: listed apart in the source
C-SBP2 [7] = biological target: T1, C-SBP2; experiment: EMSA; remark: listed apart in the source
Snu13p [8] = biological target: T2, Snu13p; experiment: competition

B1: Se1:Ins (structured_RNA)
RNA: GGACCUUUGUACCCCAGAUGAUGGGCCUUCACUGGCCUUGAUGGGUACAAAUGGCAG
Kd (C-SBP2 [1]): 0.3 µM
Kd (Snu13p [2]): 0.025 µM

B2: Se3 (structured_RNA)
RNA: GGACCUUUGUACCCCAGAUGAUGCUUUAUCAGGCGGAUGGGUACAAAUGGCAG
binding result (C-SBP2 [3]): binds

B3: Se1 (G-C)5 to (G.G)5 (structured_RNA)
RNA: GGACCUUUGUACCCCAGAUGAUGGCUUCACUGGUUGAUGGGUACAAAUGGCAG
binding signal (Snu13p [4]): ~20 fold lower affinity than Se1

B4: Se1 (structured_RNA)
RNA: B3 RNA with G33C
Kd (C-SBP2 [5]): 0.5 µM
Kd (Snu13p [6]): 0.035 µM

B5: Se1:Ins + loop (structured_RNA)
RNA: GGACCUUUGUACCCCAGUUUAUGAUGGAUCUUCACUGAUCUUGAUCCCCUGGGUACAAAUGGCAG
binding signal (C-SBP2 [7]): 4 fold higher affinity than Se1
binding result (Snu13p [8]): binds

B6: Se2 (structured_RNA)
RNA: GGACCUUUGUACCCCAGAUGACGGCUCAUUUCGUGCUUGAUGGGUACAAAUGGCAG
binding result (C-SBP2 [3]): binds

B7: Se4 (structured_RNA)
RNA: GGACCUUUGUACCCCAGAUGAUAGUAAAGCGCGGCUUGAUGGGUACAAAUGGCAG
binding result (C-SBP2 [3]): binds

B8: Se5 (structured_RNA)
RNA: B7 RNA with A26G, A28G
binding result (C-SBP2 [3]): binds

B9: Se6 (structured_RNA)
RNA: B7 RNA with A28G
binding result (C-SBP2 [3]): binds
